The target in this assay is T1, His (6x)-tagged ClpY (Escherichia coli, UniProt P0A6H5 1-443).
T1 construct: ClpY (HslU) ATPase/unfoldase of Escherichia coli, wild type, cloned in pET21a at NdeI-HindIII; Used as the 6-oligomer (1.3 uM) with 5 mM ATP; also called His-ClpY; HslU
T1 sequence (looked up): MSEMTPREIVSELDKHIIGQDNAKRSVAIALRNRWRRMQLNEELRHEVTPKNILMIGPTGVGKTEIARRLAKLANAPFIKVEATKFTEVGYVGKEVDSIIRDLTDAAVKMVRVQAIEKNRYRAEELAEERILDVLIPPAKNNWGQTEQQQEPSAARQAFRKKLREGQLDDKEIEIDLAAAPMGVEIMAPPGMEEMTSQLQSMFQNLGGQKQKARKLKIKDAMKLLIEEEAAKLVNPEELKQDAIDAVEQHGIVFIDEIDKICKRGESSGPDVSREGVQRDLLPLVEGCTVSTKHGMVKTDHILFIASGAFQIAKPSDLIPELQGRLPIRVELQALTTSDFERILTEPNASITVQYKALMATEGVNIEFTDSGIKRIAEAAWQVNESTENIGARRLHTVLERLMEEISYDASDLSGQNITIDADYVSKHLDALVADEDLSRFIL
Briefly: pull-down; His-ClpY (6-oligomer, 1.3 uM) held on cobalt resin; MBP-SulA or variant 7.8 uM; 50 mM HEPES pH 7.4, 150 mM NaCl, 5% glycerol, 5 mM MgCl2, 0.04% Triton X-100, 5 mM ATP, 41 °C 3 h, then resin at 4 °C; 10 washes with 300 mM NaCl; SDS-PAGE, Coomassie. Particulars: both partners purified.

Consider three molecules from publication PMC10743992, “A Transient π–π or Cation–π Interaction between Degron and Degrader Dual Residues: A Key Step for the Substrate Recognition and Discrimination in the Processive Degradation of SulA by ClpYQ (HslUV) Protease in Escherichia coli” (International Journal of Molecular Sciences, 2023).

Where a chain is given by its changes, count along the chain named. Numbers in names are those of the source.

B1: MBP-SulA (natural protein, Escherichia coli, UniProt P0AFZ5 1-169, looked up)
chain: MYTSGYAHRSSSFSSAASKIARVSTENTTAGLISEVVYREDQPMMTQLLLLPLLQQLGQQSRWQLWLTPQQKLSREWVQASGLPLTKVMQISQLSPCHTVESMVRALRTGNYSVVIGWLADDLTEEEHAELVDAANEGNAMGFIMRPVSASSHATRQLSGLKIHSNLYH
notes: also called wild-type MBP-SulA; source: E. coli BL21 (DE3), purified (amylose resin)
For B1, the binding result was “binds”.

B2: MBP-SulA^F143K (natural protein, Escherichia coli, UniProt P0AFZ5 1-169, looked up)
chain: B1 chain with F143K
notes: SulA of Escherichia coli with F143K, cloned in pMal-c2X at EcoRI-BamHI; source: E. coli BL21 (DE3), purified (amylose resin)
As for B2, the binding result is “binds”.

B3: MBP-SulA^F143H (natural protein, Escherichia coli, UniProt P0AFZ5 1-169, looked up)
chain: B1 chain with F143H
notes: SulA of Escherichia coli with F143H, cloned in pMal-c2X at EcoRI-BamHI; source: E. coli BL21 (DE3), purified (amylose resin)
As to B3, the binding result is reported as “binds”.
